Key:
Assay in all cases: blocking ELISA, 16.67 nM antibody, Ang-2FD-hFc to coated hTie-2-mFc
Monkey Ang-2FD-hFc = biological target: T1, Monkey Ang-2FD-hFc (monkey (Macca fascicularis))
T1 construct: also called dimeric monkey Ang-2FD

Human Ang-2FD-hFc = biological target: T2, Human Ang-2FD-hFc (human)
T2 construct: also called dimeric human Ang-2FD; human Ang-2FD protein conjugated to human IgG

Mouse Ang-2FD-hFc = biological target: T3, Mouse Ang-2FD-hFc (mouse (Mus musculus))
T3 construct: also called dimeric mouse Ang-2FD
T3 sequence (chain, as listed by the source limits assumed): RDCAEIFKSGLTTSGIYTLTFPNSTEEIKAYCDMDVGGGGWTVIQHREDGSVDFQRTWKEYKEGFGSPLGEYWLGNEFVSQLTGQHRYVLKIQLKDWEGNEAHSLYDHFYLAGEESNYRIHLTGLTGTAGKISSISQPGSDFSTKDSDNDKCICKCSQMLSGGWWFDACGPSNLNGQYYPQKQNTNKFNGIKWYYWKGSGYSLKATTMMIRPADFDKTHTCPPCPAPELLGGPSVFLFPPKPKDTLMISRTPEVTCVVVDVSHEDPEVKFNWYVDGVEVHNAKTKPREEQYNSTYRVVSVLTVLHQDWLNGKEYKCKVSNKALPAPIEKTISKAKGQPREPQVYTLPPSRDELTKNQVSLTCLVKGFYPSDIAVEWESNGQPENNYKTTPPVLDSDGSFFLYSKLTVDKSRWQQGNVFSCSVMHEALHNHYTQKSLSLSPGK

T1 sequence (chain, as listed by the source limits assumed): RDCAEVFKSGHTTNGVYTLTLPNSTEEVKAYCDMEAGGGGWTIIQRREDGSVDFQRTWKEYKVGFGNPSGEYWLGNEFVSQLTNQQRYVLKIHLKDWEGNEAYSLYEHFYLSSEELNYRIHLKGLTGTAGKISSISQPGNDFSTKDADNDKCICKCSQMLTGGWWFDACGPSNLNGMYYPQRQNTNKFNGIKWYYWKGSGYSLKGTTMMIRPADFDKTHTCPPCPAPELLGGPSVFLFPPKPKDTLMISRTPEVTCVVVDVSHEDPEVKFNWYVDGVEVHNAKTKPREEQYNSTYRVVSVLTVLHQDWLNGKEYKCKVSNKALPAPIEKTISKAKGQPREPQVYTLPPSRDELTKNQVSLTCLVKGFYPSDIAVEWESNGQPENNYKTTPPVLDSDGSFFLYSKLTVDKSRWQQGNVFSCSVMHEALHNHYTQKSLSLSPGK
T2 sequence (chain, as listed by the source limits assumed): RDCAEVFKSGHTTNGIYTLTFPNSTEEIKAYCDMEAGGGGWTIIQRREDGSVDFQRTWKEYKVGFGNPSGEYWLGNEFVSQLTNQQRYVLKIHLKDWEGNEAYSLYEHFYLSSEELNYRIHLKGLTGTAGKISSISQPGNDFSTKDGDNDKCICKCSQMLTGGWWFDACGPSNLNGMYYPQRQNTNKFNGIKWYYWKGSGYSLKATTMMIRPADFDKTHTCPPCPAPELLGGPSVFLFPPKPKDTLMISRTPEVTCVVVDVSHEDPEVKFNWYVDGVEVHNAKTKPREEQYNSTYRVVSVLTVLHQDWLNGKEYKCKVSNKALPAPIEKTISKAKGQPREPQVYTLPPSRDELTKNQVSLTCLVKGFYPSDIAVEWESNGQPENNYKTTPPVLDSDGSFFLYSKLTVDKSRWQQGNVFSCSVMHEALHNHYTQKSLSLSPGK

Percent Blocking of Ang-2FD Binding to Tie-2 (Monkey Ang-2FD-hFc): 96.2%
Percent Blocking of Ang-2FD Binding to Tie-2 (Human Ang-2FD-hFc): 97.9%
Percent Blocking of Ang-2FD Binding to Tie-2 (Mouse Ang-2FD-hFc): 97.6%
B1: H1H744N (antibody, V domains shown)
VH: QVQLVQSGVEVKKPGASVKVSCKTSGYTFSNNGFSWVRQAPGQGLEWLGWISGYNGNTNYAQKFQGRVTMTTDTSTSTAYMELRTLRSDDTAVYYCARDQDYSNFHWLDPWGQGTLVTVAS
VL: DIQMTQSPSSVSASVGDRVIITCRASQGLSSWLAWYQQKPGTAPKLLIHSASSLQTGVPSRFSGSGSGTEFALTINSLQPEDFGTYYCQQANSFPLTFGGGTRVEIK

Source: patent US20140112930A1 (published 2014)
